Measurements as given in the Immune Epitope Database (IEDB).

What was measured:
HLA-A*01:01 = test: IEDB peptide-MHC binding, purified MHC/direct/fluorescence; filed as Kd, often an IC50 or EC50 that approximates it; ≥ and ≤ were set here for values at or beyond the usual limits of such assays; settings: source organism: Mycobacterium tuberculosis
HLA-A*11:01 = test: as above; settings: source organism: Mycobacterium tuberculosis
HLA-A*26:02 = test: as above; settings: source organism: Mycobacterium tuberculosis str. Haarlem
HLA-A*31:01 = test: as above; settings: source organism: Mycobacterium tuberculosis
HLA-A*68:02 = test: as above; settings: source organism: Mycobacterium tuberculosis
HLA-A*69:01 = test: as above; settings: source organism: Mycobacterium tuberculosis
HLA-B*07:02 = test: as above; settings: source organism: Mycobacterium tuberculosis
HLA-B*08:01 = test: as above; settings: source organism: Mycobacterium tuberculosis str. Haarlem
HLA-B*08:02 = test: as above; settings: source organism: Mycobacterium tuberculosis str. Haarlem
HLA-B*08:03 = test: as above; settings: source organism: Mycobacterium tuberculosis str. Haarlem
HLA-B*15:17 = test: as above; settings: source organism: Mycobacterium tuberculosis
HLA-B*18:01 = test: as above; settings: source organism: Mycobacterium tuberculosis
HLA-B*40:01 = test: as above; settings: source organism: Mycobacterium tuberculosis
HLA-B*46:01 = test: as above; settings: source organism: Mycobacterium tuberculosis
HLA-B*48:01 = test: as above; settings: source organism: Mycobacterium tuberculosis
HLA-B*57:01 = test: as above; settings: source organism: Mycobacterium tuberculosis
HLA-B*58:01 = test: as above; settings: source organism: Mycobacterium tuberculosis
HLA-A*02:06 = test: IEDB peptide-MHC binding, purified MHC/competitive/fluorescence; filed as Kd, often an IC50 or EC50 that approximates it; ≥ and ≤ were set here for values at or beyond the usual limits of such assays; settings: source organism: Mycobacterium tuberculosis C
HLA-A*26:03 = test: as above; settings: source organism: Mycobacterium tuberculosis C
HLA-B*15:01 [1] = test: as above; settings: source organism: Mycobacterium tuberculosis C
HLA-B*15:42 = test: as above; settings: source organism: Mycobacterium tuberculosis C
HLA-B*27:05 [2] = test: as above; settings: source organism: Mycobacterium tuberculosis C
HLA-B*45:06 = test: as above; settings: source organism: Mycobacterium tuberculosis C
HLA-B*83:01 = test: as above; settings: source organism: Mycobacterium tuberculosis C
HLA-A*02:01 = test: IEDB peptide-MHC binding, purified MHC/direct/fluorescence; filed as Kd, often an IC50 or EC50 that approximates it; ≥ and ≤ were set here for values at or beyond the usual limits of such assays; settings: source organism: Mycobacterium tuberculosis
HLA-B*15:01 [3] = test: as above; settings: source organism: Mycobacterium tuberculosis
HLA-B*27:05 [4] = test: as above; settings: source organism: Mycobacterium tuberculosis

Sequence | Kd (HLA-A*01:01) [µM] | Kd (HLA-A*11:01) [µM] | Kd (HLA-A*31:01) [µM] | Kd (HLA-A*68:02) [µM] | Kd (HLA-B*07:02) [µM] | Kd (HLA-B*15:17) [µM] | Kd (HLA-B*18:01) [µM] | Kd (HLA-B*40:01) [µM] | Kd (HLA-B*46:01) [µM] | Kd (HLA-B*48:01) [µM] | Kd (HLA-B*57:01) [µM] | Kd (HLA-B*58:01) [µM] | Kd (HLA-A*26:03) [µM] | also measured
ALFDRPAFK | ≥ 20 | 0.024 | 0.0047 | ≥ 20 | ≥ 20 | ≥ 20 | ≥ 20 | ≥ 20 | ≥ 20 | ≥ 20 | ≥ 20 | ≥ 20 | ≥ 20 | Kd (HLA-A*26:02): ≥ 20 µM; Kd (HLA-A*69:01): ≥ 20 µM; Kd (HLA-B*08:01): ≥ 20 µM; Kd (HLA-B*08:02): ≥ 20 µM; Kd (HLA-B*08:03): ≥ 20 µM; Kd (HLA-A*02:06): 0.325 µM; Kd (HLA-B*15:01 [1]): ≥ 20 µM; Kd (HLA-B*15:42): ≥ 5 µM; Kd (HLA-B*27:05 [2]): ≥ 20 µM; Kd (HLA-B*45:06): ≥ 5 µM; Kd (HLA-B*83:01): ≥ 5 µM
QINELHHSK | ≥ 20 | 0.0685 | 0.335 | ≥ 20 | ≥ 20 | ≥ 20 | ≥ 20 | ≥ 20 | ≥ 20 | ≥ 20 | ≥ 20 | ≥ 20 | ≥ 20 | Kd (HLA-A*02:01): ≥ 20 µM; Kd (HLA-B*15:01 [3]): ≥ 20 µM; Kd (HLA-B*27:05 [4]): ≥ 20 µM
